From patent CN113773389A

Molecular target: T1, 人胸苷激酶1(TK1) (human) (UniProt P04183)
T1 sequence (looked up): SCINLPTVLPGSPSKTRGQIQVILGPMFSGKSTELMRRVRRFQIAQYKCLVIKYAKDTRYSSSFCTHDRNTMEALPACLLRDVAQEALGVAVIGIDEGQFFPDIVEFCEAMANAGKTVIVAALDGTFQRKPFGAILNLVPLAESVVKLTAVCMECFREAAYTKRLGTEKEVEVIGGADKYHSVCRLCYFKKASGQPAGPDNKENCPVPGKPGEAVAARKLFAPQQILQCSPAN
Test: cell-based or functional assay

- 肿瘤细胞凋亡频率 (Annexin V-FITC/PI), KATO-Ⅲ, 10μg/ml antibody, 72 h: 3.49 倍
- 肿瘤细胞凋亡频率 (Annexin V-FITC/PI), KATO-Ⅲ(STEM), 10μg/ml antibody, 72 h: 2.59 倍
- 肿瘤细胞凋亡频率 (Annexin V-FITC/PI), NCI-N87, 10μg/ml antibody, 72 h: 1.46 倍
- 肿瘤细胞凋亡频率 (Annexin V-FITC/PI), NCI-N87(STEM), 10μg/ml antibody, 72 h: 2.21 倍
- 肿瘤细胞生存活力 (CCK-8), KATO-Ⅲ, 100μg/ml antibody, 72 h: 56.3%
- 肿瘤细胞生存活力 (CCK-8), KATO-Ⅲ(STEM), 100μg/ml antibody, 72 h: 66.6%
- 肿瘤细胞生存活力 (CCK-8), NCI-N87, 100μg/mL antibody, 72 h: 85%
- 肿瘤细胞生存活力 (CCK-8), NCI-N87(STEM), 100μg/mL antibody, 72 h: 66.6%
B1: 鼠抗人胸苷激酶1-IgG单克隆抗体(SSTK小鼠杂交瘤细胞株057M) (antibody, V domains shown)
VH: EVKLVESGGGLAQPGGSLRLSCATSGFTFSDYYMNWVRQPPGKAFEWLGFIRNKEYGNTAEYNPSLKGRFTISRDDSQSILYLQMNTLRVEDSAIYYCARDGAFDYWGQGTSLTVSS
VL: DIVMTQSPASLAVSLGQRATISCRASKSVSTSGYSYMHWNQQKPGQPPKLLIYLASNLESGVPARFSGSGSGTDFTLNIHPVEEEDAATYYCQESREFPTVGGGTNLEIK
